Test results as given in the supplement of paper PMC9732359.
± gives the uncertainty stated by the source.

Test: protein stability index of a GFP-peptide fusion (yeast GPS) (PSI 1-4); higher = more stable; sorted into four equal gates, so the index is relative within each strain
How it was run: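 The protein stability index combines read frequencies across sorting gates, each weighted by its gate number and then summed. To obtain those frequencies, a pooled yeast library of GFP fusions to tiled 17-residue yeast protein peptides, on a plasmid also expressing Cherry, was grown to mid-log phase in leucine-free medium. The cells were sorted into four equal gates by GFP/Cherry ratio before plasmid amplification by PCR and Illumina sequencing.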

Row | Sequence | protein stability index (doa10∆) | protein stability index (pdr5∆) | protein stability index (san1∆) | protein stability index (ubr1∆)
1 | EKGNAKMIDFATLSKLK [SIR3] | 3.15 ± 0.074 | 3.08 ± 0.057 | 3.33 ± 0.037 | 3.24 ± 0.035
2 | EKINRMIIFLKNYDATD [CSI1] | 2.52 ± 0.045 | 2.34 ± 0.044 | 2.38 ± 0.046 | 2.26 ± 0.028
3 | EKITQISLLCKNFKGIE [PCI8] | 2.41 ± 0.049 | 2.55 ± 0.039 | 2.7 ± 0.037 | 2.5 ± 0.035
4 | EKKPAAKKTSTSTDGKK [HTB1] | 3.33 ± 0.21 | 3.07 ± 0.11 | 2.85 ± 0.18 | 3.65 ± 0.25
5 | EKLTSKSLDEQLLLLSD [LRP1] | 3.16 ± 0.077 | 3.44 ± 0.065 | 2.94 ± 0.038 | 3.31 ± 0.036
6 | EKNDQNNDDDDNSVEQG [MCD1] | – | 3.15 ± 0.22 | – | –
7 | EKQHENAVLELGTVQRE [SMC3] | – | 3.54 ± 0.26 | – | –
8 | EKTYTKAPKIQRLVTPQ [RPS6A] | 2.62 ± 0.056 | 2.43 ± 0.055 | 2.11 ± 0.064 | 2.22 ± 0.037
9 | EKVFNAYPAAREQFLNA [FAS1] | 3.16 ± 0.084 | 3.19 ± 0.094 | 3.1 ± 0.077 | 3.22 ± 0.053
10 | ELAGDEELEAEQIDVFS [PRP8] | 3.43 ± 0.079 | 3.27 ± 0.13 | 3.08 ± 0.12 | 2.82 ± 0.13
11 | ELDSKTRKILEILNECH [MED4] | 3.21 ± 0.074 | 3.22 ± 0.06 | 3.27 ± 0.037 | 3.21 ± 0.043
12 | ELEFIQSLANIQYVTYL [SOH1] | 2.48 ± 0.068 | 2.54 ± 0.053 | 2.71 ± 0.052 | 2.72 ± 0.041
13 | ELEKYNELERNRKIYQF [SMC3] | 2.34 ± 0.099 | 2.35 ± 0.13 | 2.38 ± 0.14 | 2.67 ± 0.078
14 | ELEQLVEFNRKVVIPNL [RPN3] | 3.3 ± 0.14 | 2.77 ± 0.28 | 3.26 ± 0.071 | 3.25 ± 0.11
15 | ELIALNLSEARLVIKEA [RPB4] | 3.01 ± 0.16 | – | – | 2.73 ± 0.18
16 | ELISFKERTKSLEHELK [YIL149C/MLP2] | 2.24 ± 0.062 | 2.64 ± 0.064 | 2.78 ± 0.073 | 2.78 ± 0.083
17 | ELISYRNESLKNNSSIR [SRB8] | 3.15 ± 0.068 | 3.05 ± 0.11 | 3.05 ± 0.08 | 3.05 ± 0.049
18 | ELLSMGNAKESKALLRE [SRP72] | 2.98 ± 0.12 | 2.81 ± 0.21 | 2.91 ± 0.19 | 3.13 ± 0.16
19 | ELNDNPAWFNNPRKRAI [YMR153W/NUP53] | 3.09 ± 0.089 | 2.96 ± 0.066 | 2.48 ± 0.037 | 2.98 ± 0.051
20 | ELNQDRLGGDDLRIRIK [SNF5] | 3.31 ± 0.11 | 3.36 ± 0.19 | 3.21 ± 0.12 | 2.91 ± 0.15
21 | ELNVDSMDVDDKNSGVK [ITC1] | 1.97 ± 0.1 | 1.27 ± 0.042 | 1.68 ± 0.1 | 1.43 ± 0.06
22 | ELQEKNVELLNCIRILA [YIL149C/MLP2] | 2.19 ± 0.054 | 1.95 ± 0.065 | 1.73 ± 0.085 | 1.68 ± 0.039
23 | ELTDNMSDFVPIDAGLN [MCD1] | 3.12 ± 0.11 | 2.99 ± 0.1 | 2.74 ± 0.081 | 3.21 ± 0.12
24 | ELTSFSSQPLEPLSDTE [DSN1] | 3.34 ± 0.11 | 3.12 ± 0.096 | 3.29 ± 0.065 | 3.21 ± 0.076
25 | ELVETSEVRKAVSIETA [FAS2] | 2.43 ± 0.14 | – | – | 1.27 ± 0.27
26 | ELYSFQQLVDSEKRLDH [SNF12] | 1.35 ± 0.095 | 2.26 ± 0.074 | 2.26 ± 0.11 | 1.57 ± 0.053
27 | EMARTKKACIIFFDEID [RPT1] | 2.14 ± 0.062 | 2.5 ± 0.068 | 2.54 ± 0.083 | 2.56 ± 0.047

Row | Sequence | protein stability index (doa10∆) | protein stability index (pdr5∆) | protein stability index (san1∆) | protein stability index (ubr1∆)
28 | EMDSVSKSMKFSRRFDC [CSN9] | 2.56 ± 0.11 | 2.6 ± 0.076 | 2.71 ± 0.054 | 2.85 ± 0.047
29 | EMLEENFPEASKLSEHL [YCG1] | 2.55 ± 0.28 | 2.29 ± 0.24 | 2.82 ± 0.19 | 2.49 ± 0.15
30 | EMNLHVPQSEETRAELS [RPO21] | 3.17 ± 0.2 | 3.31 ± 0.092 | 3.1 ± 0.1 | 3.15 ± 0.11
31 | ENDEEDIYMHDVNSASK [RRP4] | 3.47 ± 0.098 | 3.47 ± 0.095 | 3.01 ± 0.095 | 3.31 ± 0.059
32 | ENDEEFYKNKYSSKPYK [RPN2] | 2.4 ± 0.062 | 2.61 ± 0.097 | 2.36 ± 0.12 | 2.19 ± 0.17
33 | ENDQQDNEEWMNDVINT [LIN1] | 3.36 ± 0.076 | 3.24 ± 0.073 | 3.19 ± 0.058 | 2.98 ± 0.071
34 | ENEDGNIEERKEKIQHE [BRR2] | 3.23 ± 0.14 | 3.47 ± 0.1 | 3.57 ± 0.092 | 3.3 ± 0.15
35 | ENEFVVLLDARDIEKIT [CDC53] | – | 2.98 ± 0.17 | – | 3.08 ± 0.14
36 | ENEVENINATNTSVLMK [YCS4] | 3.3 ± 0.16 | 3.02 ± 0.12 | 3.09 ± 0.091 | 3.36 ± 0.087
37 | ENGTHNDEVNEDEEDDN [YCG1] | 3.42 ± 0.1 | 3.23 ± 0.12 | 3.54 ± 0.11 | 3.49 ± 0.14
38 | ENIENEEYVINLLKVSV [ECM29] | 1.96 ± 0.12 | 3.23 ± 0.19 | – | 3.1 ± 0.11
39 | ENNRLLFECRTCSYVEE [RPB9] | 3.12 ± 0.13 | 3.2 ± 0.14 | 3.04 ± 0.17 | 3.29 ± 0.16
40 | ENNTDSARKELEQKIHE [SMC1] | 2.33 ± 0.1 | 2 ± 0.094 | 2.79 ± 0.086 | 3.01 ± 0.1
41 | ENRFQDTLLLLPTDGGL [POP4] | 1.46 ± 0.096 | 2.12 ± 0.085 | 1.77 ± 0.11 | 2.44 ± 0.082
42 | ENVKIINYLLTLAITTV [RPN2] | 2.95 ± 0.06 | 3.03 ± 0.057 | 2.56 ± 0.065 | 2.99 ± 0.055
43 | EPGVLNTGDGSISTYKD [ECM29] | 3.28 ± 0.15 | 3.22 ± 0.15 | – | –
44 | EPLAFYLEESFTNLGII [RGR1] | 1.67 ± 0.063 | 2.18 ± 0.053 | 2.35 ± 0.071 | 2.57 ± 0.045
45 | EPLSDTEEPDLAIADVE [DSN1] | 2.96 ± 0.081 | 2.81 ± 0.067 | 3.09 ± 0.043 | 3.24 ± 0.099
46 | EPSYIFEYLATVMYQRR [PRE4] | 2.1 ± 0.081 | 2.46 ± 0.1 | 2.26 ± 0.091 | 2.12 ± 0.079
47 | EQFKMVSMITDHNALPQ [POP1] | 3.04 ± 0.18 | 3.05 ± 0.11 | 2.28 ± 0.27 | 2.85 ± 0.13
48 | EQILQWVTEVLGNDIPH [BRR2] | 3.07 ± 0.07 | 3.31 ± 0.063 | 2.88 ± 0.047 | 3.19 ± 0.058
49 | EQKLVDLLKFENISLAE [BRR2] | 2.65 ± 0.065 | 2.93 ± 0.066 | 2.71 ± 0.049 | 2.58 ± 0.055
50 | EQNHLDNNYNTAETNNK [YDL088C/ASM4] | 3 ± 0.056 | 2.96 ± 0.067 | 3.02 ± 0.043 | 2.93 ± 0.065
51 | EQPCVDIISGKIHSILP [YJR042W/NUP85] | 3.02 ± 0.067 | 3.07 ± 0.1 | 3 ± 0.064 | 3 ± 0.053
52 | EQQKGQQTAQTQLEQQR [SNF5] | 3.33 ± 0.11 | 3.4 ± 0.088 | 3.22 ± 0.079 | 3.1 ± 0.053
53 | EQRKQKLSKILPRYQEL [SMC3] | 3.22 ± 0.12 | 3.1 ± 0.1 | 3.01 ± 0.096 | 3.12 ± 0.1
